Earlier results, collected in publication PMC2757091.

Legend:
Noggin = Noggin (UniProt Q13253)
Cerberus = Cerberus (UniProt O95813)
Chordin = Chordin (UniProt Q9H2X0)
Chain of Chordin (Q9H2X0 27-955): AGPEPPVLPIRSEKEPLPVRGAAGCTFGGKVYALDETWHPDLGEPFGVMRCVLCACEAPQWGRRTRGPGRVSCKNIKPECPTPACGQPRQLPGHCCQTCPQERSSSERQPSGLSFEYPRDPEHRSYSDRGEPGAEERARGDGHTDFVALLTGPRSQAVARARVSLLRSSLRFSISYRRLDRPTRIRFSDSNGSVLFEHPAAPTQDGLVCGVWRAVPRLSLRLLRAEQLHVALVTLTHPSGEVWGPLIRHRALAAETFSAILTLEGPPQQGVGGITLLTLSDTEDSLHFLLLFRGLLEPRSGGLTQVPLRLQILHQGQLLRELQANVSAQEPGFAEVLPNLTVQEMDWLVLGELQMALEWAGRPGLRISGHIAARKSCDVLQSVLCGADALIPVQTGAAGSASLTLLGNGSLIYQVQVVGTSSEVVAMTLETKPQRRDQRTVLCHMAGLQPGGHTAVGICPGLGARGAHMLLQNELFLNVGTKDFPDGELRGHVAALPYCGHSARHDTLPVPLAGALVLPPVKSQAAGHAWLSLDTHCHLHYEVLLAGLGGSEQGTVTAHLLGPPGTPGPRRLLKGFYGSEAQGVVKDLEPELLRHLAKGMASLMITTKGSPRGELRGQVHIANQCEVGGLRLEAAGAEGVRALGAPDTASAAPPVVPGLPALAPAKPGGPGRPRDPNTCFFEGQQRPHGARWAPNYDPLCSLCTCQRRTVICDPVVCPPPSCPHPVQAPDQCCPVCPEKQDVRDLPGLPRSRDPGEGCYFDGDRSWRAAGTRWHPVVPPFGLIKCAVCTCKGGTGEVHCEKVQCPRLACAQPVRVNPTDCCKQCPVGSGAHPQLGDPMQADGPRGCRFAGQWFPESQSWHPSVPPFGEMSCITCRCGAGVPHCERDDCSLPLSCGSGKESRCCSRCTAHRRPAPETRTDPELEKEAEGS

Chain of BMP4 (P12644 293-408): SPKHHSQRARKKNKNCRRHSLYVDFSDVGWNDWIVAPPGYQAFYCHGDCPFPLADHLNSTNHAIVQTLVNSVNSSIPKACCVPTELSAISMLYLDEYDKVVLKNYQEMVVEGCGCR
Chain of Noggin (Q13253 28-232): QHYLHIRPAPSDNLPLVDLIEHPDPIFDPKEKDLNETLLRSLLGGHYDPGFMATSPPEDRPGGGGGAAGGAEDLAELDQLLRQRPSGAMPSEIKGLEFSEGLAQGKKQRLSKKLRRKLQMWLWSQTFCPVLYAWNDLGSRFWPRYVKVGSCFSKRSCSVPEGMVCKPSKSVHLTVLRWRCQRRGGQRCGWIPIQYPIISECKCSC
Chain of Cerberus (O95813 18-267): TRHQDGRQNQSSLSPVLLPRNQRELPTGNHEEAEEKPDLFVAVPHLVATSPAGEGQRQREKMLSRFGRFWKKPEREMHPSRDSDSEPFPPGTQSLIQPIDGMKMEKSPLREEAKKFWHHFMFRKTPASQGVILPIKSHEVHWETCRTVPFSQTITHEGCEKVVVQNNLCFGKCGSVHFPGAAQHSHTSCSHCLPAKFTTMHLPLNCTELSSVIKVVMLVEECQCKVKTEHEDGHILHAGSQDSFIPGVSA

Kd (Noggin): 0.02 nM | Kd (Cerberus): 0.6 nM | Kd (Chordin): 0.2 nM
Substance: BMP4 (from UniProt P12644)
